# Test results from US20070009547A1 (INSTITUT PASTEUR, published 2007).
# T1: CFP-10 carrying an N-terminal HIS tag, produced by BCG::2F9-HIS-EsxB (Mycobacterium tuberculosis, UniProt P9WNK5 2-100)
# T1 sequence: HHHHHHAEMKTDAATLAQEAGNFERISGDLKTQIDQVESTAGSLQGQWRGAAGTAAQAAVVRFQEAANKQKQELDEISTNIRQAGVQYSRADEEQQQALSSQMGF
# B1: 6 kDa early secreted antigenic target (ESAT-6), native, encoded by esxA (other)
# chain: TEQQWNFAGIEAAASAIQGNVTSIHSLLDEGKQSLTKLAAAWGGSGSEAYQGVQQKWDATATELNNALQNLARTISEAGQAMASTEGNVTGMFA
# Molecular target: T1, CFP-10 carrying an N-terminal HIS tag, …
# Assay: Ni-NTA co-purification, Coomassie gel and western blot
binder,measurement,value
B1,binding result,binds
